Measured values: US20040176301A1 (CYCLACEL, published 2004)
Numbered stars: 1 amine (or outer) side, 2 acyl side, 3 side chain; on linkers, the order of the positions; unused ones are H or OH. Square brackets hold non-standard residues; d marks the D form. Ends that are not written are not given here. Phe(3R-OH) = O=C([C@@H](N[*:1])[C@H](O[*:3])c1ccccc1)[*:2]; Phe(3-F) = N[C@@H](Cc1cccc(F)c1)C(=O)O; Phe(4-F) = N[C@@H](Cc1ccc(F)cc1)C(=O)O; 1Nal = N[C@@H](Cc1cccc2ccccc12)C(=O)O; 2Nal = N[C@@H](Cc1ccc2ccccc2c1)C(=O)O; hPhe = N[C@@H](CCc1ccccc1)C(=O)O; Tic = O=C(O)[C@@H]1Cc2ccccc2CN1; Cha = N[C@@H](CC1CCCCC1)C(=O)O; Nle = CCCC[C@H](N)C(=O)O; Nva = CCC[C@H](N)C(=O)O; Abu = CC[C@H](N)C(=O)O; dPse = D-phenylserine

B1: H-His-Ala-Lys-Arg-Arg-Leu-1Nap-Phe-NH2 (peptide)
peptide: H-HAKRRL[1Nal]F-NH2
SMILES: CC(C)C[C@H](NC(=O)[C@H](CCCNC(=N)N)NC(=O)[C@H](CCCNC(=N)N)NC(=O)[C@H](CCCCN)NC(=O)[C@H](C)NC(=O)[C@@H](N)Cc1c[nH]cn1)C(=O)N[C@@H](Cc1cccc2ccccc12)C(=O)N[C@@H](Cc1ccccc1)C(N)=O
B2: H-His-Ala-Lys-Arg-Arg-Leu-Nle-Phe-NH2 (peptide)
peptide: H-HAKRRL[Nle]F-NH2
SMILES: CCCC[C@H](NC(=O)[C@H](CC(C)C)NC(=O)[C@H](CCCNC(=N)N)NC(=O)[C@H](CCCNC(=N)N)NC(=O)[C@H](CCCCN)NC(=O)[C@H](C)NC(=O)[C@@H](N)Cc1c[nH]cn1)C(=O)N[C@@H](Cc1ccccc1)C(N)=O
B3: H-His-Ala-Lys-Arg-Arg-Leu-Nva-Phe-NH2 (peptide)
peptide: H-HAKRRL[Nva]F-NH2
SMILES: CCC[C@H](NC(=O)[C@H](CC(C)C)NC(=O)[C@H](CCCNC(=N)N)NC(=O)[C@H](CCCNC(=N)N)NC(=O)[C@H](CCCCN)NC(=O)[C@H](C)NC(=O)[C@@H](N)Cc1c[nH]cn1)C(=O)N[C@@H](Cc1ccccc1)C(N)=O
B4: H-His-Ala-Lys-Arg-Arg-Leu-Cha-Phe-NH2 (peptide)
peptide: H-HAKRRL[Cha]F-NH2
SMILES: CC(C)C[C@H](NC(=O)[C@H](CCCNC(=N)N)NC(=O)[C@H](CCCNC(=N)N)NC(=O)[C@H](CCCCN)NC(=O)[C@H](C)NC(=O)[C@@H](N)Cc1c[nH]cn1)C(=O)N[C@@H](CC1CCCCC1)C(=O)N[C@@H](Cc1ccccc1)C(N)=O
B5: H-His-Ala-Lys-Arg-Arg-Leu-Ile-mFPhe-NH2 (peptide)
peptide: H-HAKRRLI[Phe(3-F)]-NH2
SMILES: CC[C@H](C)[C@H](NC(=O)[C@H](CC(C)C)NC(=O)[C@H](CCCNC(=N)N)NC(=O)[C@H](CCCNC(=N)N)NC(=O)[C@H](CCCCN)NC(=O)[C@H](C)NC(=O)[C@@H](N)Cc1c[nH]cn1)C(=O)N[C@@H](Cc1cccc(F)c1)C(N)=O
B6: H-His-Ala-Lys-Arg-Arg-Leu-Ile-1Nap-NH2 (peptide)
peptide: H-HAKRRLI[1Nal]-NH2
SMILES: CC[C@H](C)[C@H](NC(=O)[C@H](CC(C)C)NC(=O)[C@H](CCCNC(=N)N)NC(=O)[C@H](CCCNC(=N)N)NC(=O)[C@H](CCCCN)NC(=O)[C@H](C)NC(=O)[C@@H](N)Cc1c[nH]cn1)C(=O)N[C@@H](Cc1cccc2ccccc12)C(N)=O
B7: H-His-Ala-Lys-Arg-Arg-Leu-Ile-2Nap-NH2 (peptide)
peptide: H-HAKRRLI[2Nal]-NH2
SMILES: CC[C@H](C)[C@H](NC(=O)[C@H](CC(C)C)NC(=O)[C@H](CCCNC(=N)N)NC(=O)[C@H](CCCNC(=N)N)NC(=O)[C@H](CCCCN)NC(=O)[C@H](C)NC(=O)[C@@H](N)Cc1c[nH]cn1)C(=O)N[C@@H](Cc1ccc2ccccc2c1)C(N)=O
B8: H-His-Ala-Lys-Arg-Arg-Leu-Ile-Tic-NH2 (peptide)
peptide: H-HAKRRLI[Tic]-NH2
SMILES: CC[C@H](C)[C@H](NC(=O)[C@H](CC(C)C)NC(=O)[C@H](CCCNC(=N)N)NC(=O)[C@H](CCCNC(=N)N)NC(=O)[C@H](CCCCN)NC(=O)[C@H](C)NC(=O)[C@@H](N)Cc1c[nH]cn1)C(=O)N1Cc2ccccc2C[C@H]1C(N)=O
B9: H-His-Ala-Lys-Arg-Arg-Leu-Ile-Cha-NH2 (peptide)
peptide: H-HAKRRLI[Cha]-NH2
SMILES: CC[C@H](C)[C@H](NC(=O)[C@H](CC(C)C)NC(=O)[C@H](CCCNC(=N)N)NC(=O)[C@H](CCCNC(=N)N)NC(=O)[C@H](CCCCN)NC(=O)[C@H](C)NC(=O)[C@@H](N)Cc1c[nH]cn1)C(=O)N[C@@H](CC1CCCCC1)C(N)=O
B10: H-His-Ala-Lys-Arg-Arg-Leu-Ile-Hof-NH2 (peptide)
peptide: H-HAKRRLI[hPhe]-NH2
SMILES: CC[C@H](C)[C@H](NC(=O)[C@H](CC(C)C)NC(=O)[C@H](CCCNC(=N)N)NC(=O)[C@H](CCCNC(=N)N)NC(=O)[C@H](CCCCN)NC(=O)[C@H](C)NC(=O)[C@@H](N)Cc1c[nH]cn1)C(=O)N[C@@H](CCc1ccccc1)C(N)=O
B11: H-His-Ala-Lys-Arg-Arg-Leu-Ile-pFPhe-NH2 (peptide)
peptide: H-HAKRRLI[Phe(4-F)]-NH2
SMILES: CC[C@H](C)[C@H](NC(=O)[C@H](CC(C)C)NC(=O)[C@H](CCCNC(=N)N)NC(=O)[C@H](CCCNC(=N)N)NC(=O)[C@H](CCCCN)NC(=O)[C@H](C)NC(=O)[C@@H](N)Cc1c[nH]cn1)C(=O)N[C@@H](Cc1ccc(F)cc1)C(N)=O

target: T1, CDK2/cyclin A (UniProt P24941 1-298; P20248 1-432); assay: cell-based or functional assay

Binder	Relative activity, Kinase Inhibition (CDK2/cyclin A kinase assay, pRb substrate, [ATP] = 100 µM)
H-HAKRRLI[dPse]-OH [H-His-Ala-Lys-Arg-Arg-Leu-Ile-D-Pse-OH]	< 0.1 relative to H-His-Ala-Lys-Arg-Arg-Leu-Ile-Phe-NH2 (=1)
H-HAKRRLI[Phe(3R-OH)]-OH [H-His-Ala-Lys-Arg-Arg-Leu-Ile-L-Pse-OH]	< 0.1 relative to H-His-Ala-Lys-Arg-Arg-Leu-Ile-Phe-NH2 (=1)

target: T1, CDK2/cyclin A; assay: cell-based or functional assay; remark: another data set of the same source

Binder	Relative activity, Kinase Inhibition (CDK2/cyclin A kinase assay, pRb substrate, [ATP] = 100 µM)
H-HAKRRLF-NH2 [H-His-Ala-Lys-Arg-Arg-Leu-Phe-NH2]	< 0.1 relative to H-His-Ala-Lys-Arg-Arg-Leu-Ile-Phe-NH2 (=1)
B1	0.5 relative to H-His-Ala-Lys-Arg-Arg-Leu-Ile-Phe-NH2 (=1)
H-HAKRRLLF-NH2 [H-His-Ala-Lys-Arg-Arg-Leu-Leu-Phe-NH2]	1.2 relative to H-His-Ala-Lys-Arg-Arg-Leu-Ile-Phe-NH2 (=1)
B2	0.4 relative to H-His-Ala-Lys-Arg-Arg-Leu-Ile-Phe-NH2 (=1)
H-HAKRRLFF-NH2 [H-His-Ala-Lys-Arg-Arg-Leu-Phe-Phe-NH2]	0.4 relative to H-His-Ala-Lys-Arg-Arg-Leu-Ile-Phe-NH2 (=1)
B3	0.2 relative to H-His-Ala-Lys-Arg-Arg-Leu-Ile-Phe-NH2 (=1)
H-HAKRRLVF-NH2 [H-His-Ala-Lys-Arg-Arg-Leu-Val-Phe-NH2]	0.8 relative to H-His-Ala-Lys-Arg-Arg-Leu-Ile-Phe-NH2 (=1)
B4	0.3 relative to H-His-Ala-Lys-Arg-Arg-Leu-Ile-Phe-NH2 (=1)
H-HAKRRLAF-NH2 [H-His-Ala-Lys-Arg-Arg-Leu-Ala-Phe-NH2]	0.3 relative to H-His-Ala-Lys-Arg-Arg-Leu-Ile-Phe-NH2 (=1)

target: T1, CDK2/cyclin A; assay: cell-based or functional assay; remark: another data set of the same source

Binder	Relative activity, Kinase Inhibition (CDK2/cyclin A kinase assay, pRb substrate, [ATP] = 100 µM)
H-HAKRRLIW-NH2 [H-His-Ala-Lys-Arg-Arg-Leu-Ile-Trp-NH2]	0.3 relative to H-His-Ala-Lys-Arg-Arg-Leu-Ile-Phe-NH2 (=1)
B5	0.8 relative to H-His-Ala-Lys-Arg-Arg-Leu-Ile-Phe-NH2 (=1)
B6	0.2 relative to H-His-Ala-Lys-Arg-Arg-Leu-Ile-Phe-NH2 (=1)
H-HAKRRLIY-NH2 [H-His-Ala-Lys-Arg-Arg-Leu-Ile-Tyr-NH2]	0.3 relative to H-His-Ala-Lys-Arg-Arg-Leu-Ile-Phe-NH2 (=1)
B7	1.2 relative to H-His-Ala-Lys-Arg-Arg-Leu-Ile-Phe-NH2 (=1)
B8	0.3 relative to H-His-Ala-Lys-Arg-Arg-Leu-Ile-Phe-NH2 (=1)
B9	< 0.1 relative to H-His-Ala-Lys-Arg-Arg-Leu-Ile-Phe-NH2 (=1)
H-HAKRRLIK-NH2 [H-His-Ala-Lys-Arg-Arg-Leu-Ile-Lys-NH2]	< 0.1 relative to H-His-Ala-Lys-Arg-Arg-Leu-Ile-Phe-NH2 (=1)
B10	< 0.1 relative to H-His-Ala-Lys-Arg-Arg-Leu-Ile-Phe-NH2 (=1)
B11	1 relative to H-His-Ala-Lys-Arg-Arg-Leu-Ile-Phe-NH2 (=1)
H-HAKRRLIL-NH2 [H-His-Ala-Lys-Arg-Arg-Leu-Ile-Leu-NH2]	0.3 relative to H-His-Ala-Lys-Arg-Arg-Leu-Ile-Phe-NH2 (=1)

target: T2, CDK4/Cyclin D1 complex (UniProt P11802 1-303; P24385 1-295); assay: cell-based or functional assay
T2 sequence (P11802 other isoform, or with tags, fused parts or gaps, chain 1 of 2): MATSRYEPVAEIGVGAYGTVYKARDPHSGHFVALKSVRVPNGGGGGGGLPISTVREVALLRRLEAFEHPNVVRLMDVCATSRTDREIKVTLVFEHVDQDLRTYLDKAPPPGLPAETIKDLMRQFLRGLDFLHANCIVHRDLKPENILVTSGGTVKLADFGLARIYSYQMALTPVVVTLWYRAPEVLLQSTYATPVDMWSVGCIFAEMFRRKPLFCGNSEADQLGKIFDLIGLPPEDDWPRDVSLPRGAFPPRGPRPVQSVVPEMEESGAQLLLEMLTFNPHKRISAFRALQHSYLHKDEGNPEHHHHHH
T2 sequence (P24385 whole entry, chain 2 of 2): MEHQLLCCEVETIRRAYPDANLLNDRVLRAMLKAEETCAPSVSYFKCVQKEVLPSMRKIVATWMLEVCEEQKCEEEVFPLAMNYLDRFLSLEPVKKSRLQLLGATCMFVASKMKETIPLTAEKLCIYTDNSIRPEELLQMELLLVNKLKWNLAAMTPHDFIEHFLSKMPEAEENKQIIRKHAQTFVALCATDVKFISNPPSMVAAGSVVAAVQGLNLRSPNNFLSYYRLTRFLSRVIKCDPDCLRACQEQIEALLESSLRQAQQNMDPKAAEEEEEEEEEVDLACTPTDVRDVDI

Binder	% Inhibition, cyclin D1/CDK4 kinase
DFYHSK-NH2 [DFYHSK-NH2]	10%
DFYHSKRRL-NH2 [DFYHSKRRL-NH2]	10%
DFYHSKRR-NH2 [DFYHSKRR-NH2]	10%
DFYHSKRRLI-NH2 [DFYHSKRRLI-NH2]	20%
HSKRRLIF-NH2 [p21 (152-159) HSKRRLIF-NH2]	72%

target: T3, CDK2/Cyclin E complex (UniProt P24941 1-298; P24864 1-410); assay: cell-based or functional assay

Binder	% Inhibition, cyclin E/CDK2 kinase	IC50, cyclin E/CDK2 kinase, GST-pRb
DFYHSK-NH2 [DFYHSK-NH2]	45%	200 µM
DFYHSKRRL-NH2 [DFYHSKRRL-NH2]	50%	200 µM
DFYHSKRR-NH2 [DFYHSKRR-NH2]	40%	
DFYHSKRRLI-NH2 [DFYHSKRRLI-NH2]	35%	
HSKRRLIF-NH2 [p21 (152-159) HSKRRLIF-NH2]	80%	3.4 µM

target: T2, CDK4/Cyclin D1 complex; assay: cell-based or functional assay; remark: another data set of the same source

Binder	% Inhibition, cyclin D1/CDK4 kinase	IC50, cyclin D1/CDK4 kinase
HSKRRLFG-NH2 [P21 C-terminius-LFG hybrid HSKRRLFG-NH2]	42%	
KA[Abu]RRLFG-NH2 [P21 N-terminus peptide KAURRLFG-NH2]	66%	42000 nM
KAXRRLIF (U at position 3 (read as Abu); C-terminal carboxamide) [P21 N-terminus-LIF hybrid KAURRLIF-NH2]	83%	13000 nM
HSKRRLIF-NH2 [p21 (152-159) HSKRRLIF-NH2]	72%	

target: T3, CDK2/Cyclin E complex; assay: cell-based or functional assay; remark: another data set of the same source

Binder	% Inhibition, cyclin E/CDK2 kinase	IC50, cyclin E/CDK2 kinase
HAKRRLFG-NH2 [P21 C-terminus (S153A) LFG HAKRRLFG-NH2]	82%	900 nM
HSKRRLFG-NH2 [P21 C-terminius-LFG hybrid HSKRRLFG-NH2]	82%	1600 nM
KA[Abu]RRLFG-NH2 [P21 N-terminus peptide KAURRLFG-NH2]	86%	74 nM
KAXRRLIF (U at position 3 (read as Abu); C-terminal carboxamide) [P21 N-terminus-LIF hybrid KAURRLIF-NH2]	78%	
HSKRRLIF-NH2 [p21 (152-159) HSKRRLIF-NH2]	80%	3400 nM
